B1: CE3: anti-tau clone, SEQ ID NO: 367 (protein)
scFv: QVRLQESGPSLVKPSQTLSVTCTVSGFSLISNAVGWVRQAPGKVPESLAGCSSDGKCYYNSALKSRLDITRDTSKNQISLSLSSVTTDDAAVYYCTRGYYPVYGYDYLGTIDYWGPGLLVTVSSEGKSSGASGESKVDDQAVLTQPSSVSGSLGQRVSITCSGSSSNVGRNDVAWFQQLPGSGLRTIIYGTTSRPSGIPDRFSGSKSGVTATLTIDSLQAEDEADYFCASGDSSAINDIFGSGTRLTVLG
modifications: CE3 amino acid sequence
B2: 3aH6: anti-tau clone, SEQ ID NO: 423 (protein)
scFv: QVQLQESGPSLVKPSQTLSLTCTVSGFSLSSNGVGWVRQAPGKVPEWLGDISSVGKKYANPALKSRLSFTRDTSKSQVSLSLSSVTTEDTAVYYCVKCRDGGVTYGYDIDYWGPGLLVTASSEGKSSGASGESKVDDQAVVTQPSSVSGSLGQSVSITCSGSSGNVGYGDYVSWFQQFHGSAPKLLIYGATNLASGVPARFSGSRSGNTATLTISSLHAEDEADYYCASYDSSSGGVFGSGTRLTVLG
modifications: 3aH6 amino acid sequence
B3: 3aG3: anti-tau clone, SEQ ID NO: 424 (protein)
scFv: QVQLQESGPSLVKPSQTLSLTCTVSGFSLSSNGVGWVRQAPGKVPEWVGDISSSGKAYANPALKSRLSITRDTAKTQVFLSLSSVTTEDTAVYYCVRCRDGGVSYGYDIDYWGPGLLVTVSSEGKSSGASGESKVDDQAVLTQPPSVSGSPGQRVSITCSGSSSNIGGGNYLSWFQQVPGSAPKLLIYGATSRASGVPDRFSGSRSGNTATLTISSLQAEDEADYYCASFDTSSGGIFGAGTRLTVLG
modifications: 3aG3 amino acid sequence
B4: 3bG4: anti-tau clone, SEQ ID NO: 425 (protein)
scFv: QVQLQESGPSLVKPSQTLSLTCTISGFSLISNGVGWVRQAPGKVPEWVGDIASSGKAYSNPALKSRLSITRDTSKSQVSLSLRSVTTEDTAVYYCVRCRDGGVTYGYDIDYWGPGLLVTVSSEGKSSGASGESKVDDQAVLTQPSSVSKSLGQSVSITCSGSTSNVGSGNDVSWFQQVPGSAPKLLFYGATNRASGVPDRFSGSRSGNTATLTITSLQAEDEADYYCGSYDSNSGGIFGSGTRLTVLG
modifications: 3bG4 amino acid sequence
B5: MD9/MoD9: anti-tau clone, SEQ ID NO: 373 (protein)
scFv: QVRLQESGPSLVKSSQTLSLTCTVSGFSLTRESIAWVRQAPGKVPEWLGGVGIDGTSYYSPALKSRLSITRDTSKSQASLSLSSVATEDTAMYYCARNYIDFEYWGPGLLVTVSSEGKSSGASGESKVDDQAVLTQLSSVSGSLGQRISITCSGSSSNVGIYDVSWFQQLPGSGLRTVIYGTNNRPSGVPDRFSGSRSGNTATLTISSLQSEDEAIYYCAAGDSSTIAVFGSGTRLTVLG
modifications: MD9 amino acid sequence
B6: 3bD11 (protein)
scFv: RVRLQGSGPSLVKPSQTLSLTCTVSGFSFDSYYVGWVRQAPGKALEWLGNIYSTGRAFYNPALKSRLSITRDTSKSQVSLSVSSVTIEDTALYYCVRGSYYHGGGNGMVDFFDYWSPGLLVTVSSEGKSSGASGESKVDDQVVRTQPSSVSGSLGQRVSITCSGSSSNVGYGNYVGWFQQVPGSAPKLLIYAATSRASGVPDRFSGSRSGNTATLTIDSLQAEDEADYYCSSYQRGNTGVFGSGTRLTVLG
B7: 3bF4: anti-tau clone, SEQ ID NO: 421 (protein)
scFv: QVQLQESGPSLVKPSQTLSLTCTVSGFSLSSNGVGWVRQAPGKVPEWLGDISSVGKKYANPALKSRLSFTRDTSKSQVSLSLSSVTTEDTAVYYCVKCRDGGVTYGYDIDYWGPGLLVTVSSEGKSSGASGESKVDDQAVLTQPSSVSKSTGQTVSITCSGSSSNVGLRNYVTWFQQVPGSAPKLLIYGATSRASGIPDRFSGSRSGNTATLIISSLQAEDEADYYCASADTNDGGVFGSGTRLTVLG
modifications: 3bF4 amino acid sequence
B8: 3aA6: anti-tau clone, sequence in b345 (protein)
scFv: QVRLQESGSSLVKPSQTLSLVCTVSGFPLTSNAVGWVRQAPGKAPEWLGLIDIDGDTAYNPALESRLSITRDTSKSQVSLSLSSVAIEDTAVYYCARHYDKWGYADSIDYWGPGLLVTVSSEGKSSGASGESKVDDQALLTQPSSVFGSLGQRVSITCSGSSSNVGYGDYVGWYQQVPGSAPKLLIYDATTRASGVPDRFSGSRSGNTATLTISSLQAEDEADYYCASYQNERSGVFGSGTRLTVLG
modifications: 3aA6 amino acid sequence
B9: 3aB7: anti-tau clone, SEQ ID NO: 420 (protein)
scFv: QVQLQESGPSLVKPSQTLSLTCTVSGFSLTSNGVGWVRQAPGKVPEWVGDKSSAGKTYGNPALKSRLSITRDTSKSQVSLSLSSVTTEDTAVYYCVRCRDGGVTYGYDVDYWGPGLLVTVSSEGKSSGASGESKVDDQAVLTQPSSVSKSLGQSVSITCSGSSSNVGYGDVVSWFQQFPGSAPKLLIFGTTTRASGVPDRFSGSRSGNAATLTINSLQAEDEADYYCASFDSDSGGIAGSGTRLTVLG
modifications: 3aB7 amino acid sequence

These molecules were tested against htau40 (Homo sapiens, UniProt P10636) (assay: Biacore X100 SPR of anti-tau mAbs on immobilised htau40). Conditions: mAb, Table 27, immobilised hT40.
Sequence of htau40 (P10636 1-441 isoform P10636-8): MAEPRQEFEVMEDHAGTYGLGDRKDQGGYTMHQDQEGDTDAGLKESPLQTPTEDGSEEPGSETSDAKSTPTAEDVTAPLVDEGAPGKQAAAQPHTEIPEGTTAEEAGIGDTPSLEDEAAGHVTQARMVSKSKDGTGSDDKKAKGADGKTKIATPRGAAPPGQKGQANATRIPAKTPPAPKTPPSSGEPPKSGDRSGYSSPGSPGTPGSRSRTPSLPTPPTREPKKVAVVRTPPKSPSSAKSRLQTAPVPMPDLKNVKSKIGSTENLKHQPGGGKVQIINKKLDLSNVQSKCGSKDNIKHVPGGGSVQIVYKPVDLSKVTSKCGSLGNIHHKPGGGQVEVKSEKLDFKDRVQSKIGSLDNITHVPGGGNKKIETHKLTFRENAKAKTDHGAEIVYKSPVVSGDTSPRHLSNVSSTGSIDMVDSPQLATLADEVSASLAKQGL
Format: binding
Method: For anti-tau mAb SPR measurements, htau40 was conjugated to the surface of a CM5 sensor chip using amine coupling as explained previously. Briefly, 2 μg/mL htau40 in 10 mM Sodium acetate buffer (pH 4.0) was passed over the activated chip surface (EDC/NHS) in flow cell 2 for a period for 45 s followed by blocking with 1 M ethanolamine-HCl PH 8.5. Flow cell 1 was set up as reference control and blocked simultaneously. Final immobilisation level of htau40 (Rmax) was approximately 250 RU. Following a minimum of three start-up cycles, increasing concentrations (0.78 nM-25 nM) of the mAb in HBS-EP+ buffer was added at a rate of 30 μL/min to the chip. The mAb was added for a 120 s association period and 600 s dissociation period followed by a regeneration cycle of 30 s injection of glycine buffer pH 1.5 in between each cycle. Binding responses were analysed in Biacore X100 evaluation software and data fitted to a 1:1 binding model to obtain kinetic and affinity characterisation.
For anti-tau mAb SPR measurements (Biacore X100™) and epitope mapping, the same methodologies described above (see Example 16) were followed. Kinetic rates and equilibrium binding constants of additional anti-tau mAbs and the regions recognised on hT40 are given in the Table 25 below
Molecule B1 has a ka of 103000 M⁻¹ s⁻¹ and a kd of 0.001718 s⁻¹.

Same assay, conditions: newly converted mAbs, Table 25 (Example 28), hT40
B2 gave a ka of 3.128e+06 M⁻¹ s⁻¹ and a kd of 0.0001522 s⁻¹.
With B3 the ka was 1.532e+07 M⁻¹ s⁻¹ and the kd was 0.004751 s⁻¹.
In the case of B4, the ka is reported as 4.54e+06 M⁻¹ s⁻¹ and the kd is reported as 0.0002964 s⁻¹.
For B5, the ka was 66200 M⁻¹ s⁻¹ and the kd was 0.001462 s⁻¹.
Work on B6 yielded a ka of 2.671e+06 M⁻¹ s⁻¹ and a kd of 0.003979 s⁻¹.

Same assay, conditions: newly converted mAbs, Table 25 (Example 28); read-out: kD (M) for hT40 binding
In the case of B2, the Kd is reported as 4.9e-11 M.

These molecules were tested against hT40 (Homo sapiens, UniProt P10636) (assay: Biacore X100 SPR, scAb captured via anti-HuCk, hT40 as analyte). Conditions: '3a' and '3b' scAbs, Table 25, hT40.
Sequence of hT40 (P10636 1-441 isoform P10636-8): as above
Format: binding
Method: Surface plasmon resonance (SPR) is widely regarded as the gold standard for real time measurement of protein-protein interactions such as antibody binding. All SPR experiments were carried out using a Biacore X100 machine and HBS EP+ running buffer (GE Healthcare). A ‘capture’ method was followed for affinity measurements, where an anti-human constant kappa chain (HuCk) antibody was conjugated to the surface of a CM5 sensor chip using an amine coupling kit and scAb molecules were immobilised via their HuCk domain. Amine coupling is a very common approach for immobilising the ligand to the chip surface. […] The capture antibody was diluted 1/100 in 10 mM Sodium acetate buffer pH 5.0 and passed over the activated chip surface for a period of at least 420 s. Final ligand immobilisation levels over 12,000 RU were deemed to be satisfactory.
Following immobilisation, the level of each scAb to be captured was identified using the standard SPR equation with a theoretical RMax of 100 RU. Analyte MW refers to the molecular weight of hT40 or dGA/dGAE molecules, while ligand MW refers to the molecular weight of the scAbs tested. RL is the desired capture level and S refers to the stoichiometric ratio:
The scAb to be tested was added only to flow cell 2 so that flow cell 1 could act as a control to subtract any interaction with the analyte and the chip surface. Both single and multi-cycle runs were utilised using wizards developed in the Biacore X100 control software which are both accepted methods of kinetic analysis (Karlsson, R., et al. Analyzing a kinetic titration series using affinity biosensors (2006) Analytical Biochemistry 349:136-47). The multi-cycle protocol was as follows-Three start-up cycles composed of an initial capture, to the desired level, of the scAb to be tested was performed followed by a 30 s injection of glycine buffer pH 2.0 after each cycle to regenerate the chip surface. […] Following three start-up cycles increasing concentrations (0.15625 nM-100 nM) of the target to be tested were added to the chip surface after the desired scAb capture. The target was added for a 120 s association period and 420 s dissociation period followed by another regeneration, 30 s injection of glycine buffer pH 2.0 in between each cycle.
The single cycle kinetics protocol was similar and utilised the same level of scAb capture. Three start-up cycles were used followed by 5 increasing concentrations of the analyte (6.25 nM-100 nM) for an association period of 120 s followed by a dissociation period of 420 s for each concentration. In single cycle kinetics the regeneration step was performed only after the final analyte concentration was added. Binding responses were analysed in Biacore X100 evaluation software and data fitted to a 1:1 binding model to obtain kinetic and affinity characterisation.
For B2, the ka was 2.757e+06 M⁻¹ s⁻¹ and the kd was 0.009868 s⁻¹.
In the case of B3, the ka is reported as 62940 M⁻¹ s⁻¹ and the kd is reported as 0.0003869 s⁻¹.
Work on B7 yielded a ka of 109300 M⁻¹ s⁻¹ and a kd of 0.01532 s⁻¹.
Molecule B4 has a ka of 6.669e+06 M⁻¹ s⁻¹ and a kd of 0.05966 s⁻¹.
B8 gave a ka of 19000 M⁻¹ s⁻¹ and a kd of 0.0188 s⁻¹.
Molecule B9 has a ka of 207200 M⁻¹ s⁻¹ and a kd of 0.01435 s⁻¹.

Same assay, conditions: scAb, Table 23, T441 (hT40)
For B1, the ka was 174500 M⁻¹ s⁻¹ and the kd was 0.000662 s⁻¹.
